Results taken from the supplement of paper PMC6379048.

Columns and labels:
Assay in all cases: Kd (EC50 corrected by depletion factor)
[1] = molecular target: T1, DHX37 (UniProt Q8IY37)
T1 sequence: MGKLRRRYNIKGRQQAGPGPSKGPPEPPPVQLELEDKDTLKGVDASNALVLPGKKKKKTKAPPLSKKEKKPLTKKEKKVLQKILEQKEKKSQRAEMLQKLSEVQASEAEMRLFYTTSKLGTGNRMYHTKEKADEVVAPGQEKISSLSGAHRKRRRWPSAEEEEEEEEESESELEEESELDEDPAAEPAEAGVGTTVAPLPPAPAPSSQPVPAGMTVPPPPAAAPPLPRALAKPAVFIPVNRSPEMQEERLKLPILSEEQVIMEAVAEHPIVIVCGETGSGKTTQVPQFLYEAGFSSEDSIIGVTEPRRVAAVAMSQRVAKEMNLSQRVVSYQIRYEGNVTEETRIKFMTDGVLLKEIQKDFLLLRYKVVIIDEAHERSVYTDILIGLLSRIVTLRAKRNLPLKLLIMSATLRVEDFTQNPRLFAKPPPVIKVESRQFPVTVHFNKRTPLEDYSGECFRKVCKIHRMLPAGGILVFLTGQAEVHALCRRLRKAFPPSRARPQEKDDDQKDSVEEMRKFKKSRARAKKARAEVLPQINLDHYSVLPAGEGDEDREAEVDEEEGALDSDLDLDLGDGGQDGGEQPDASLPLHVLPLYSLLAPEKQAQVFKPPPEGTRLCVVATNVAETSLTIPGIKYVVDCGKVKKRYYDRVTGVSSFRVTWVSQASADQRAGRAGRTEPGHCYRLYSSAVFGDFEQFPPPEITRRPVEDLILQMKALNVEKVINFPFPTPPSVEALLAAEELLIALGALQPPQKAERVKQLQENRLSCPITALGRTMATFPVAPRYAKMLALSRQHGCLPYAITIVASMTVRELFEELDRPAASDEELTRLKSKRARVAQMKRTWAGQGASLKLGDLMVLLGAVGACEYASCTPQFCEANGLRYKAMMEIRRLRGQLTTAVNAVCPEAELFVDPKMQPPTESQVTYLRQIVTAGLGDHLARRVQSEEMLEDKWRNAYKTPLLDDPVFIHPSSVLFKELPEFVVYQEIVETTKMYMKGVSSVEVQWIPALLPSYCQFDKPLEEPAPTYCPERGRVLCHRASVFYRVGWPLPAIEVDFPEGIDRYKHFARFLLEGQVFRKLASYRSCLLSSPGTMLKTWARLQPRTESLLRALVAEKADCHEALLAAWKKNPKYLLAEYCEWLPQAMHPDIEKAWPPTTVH
Method in brief: (§1)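 Kd was calculated as EC50, taken from a four-parameter log-logistic fit, multiplied by a protein-dependent depletion factor. The assay used HEK293-FT lysate (2.5 mg protein/well) pre-incubated for 1 h at 4°C with free RNA oligos (0 nM to 30 μM), then incubated for 30 min at 4°C with the matching oligos bound through a 5′-amino-C6 linker to NHS-Sepharose beads. Bound proteins were measured by label-free LC-MS/MS and normalised to the control.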

[2] = molecular target: DAP3 (UniProt P51398)
Method in brief: as §1

[3] = molecular target: SKIV2L (UniProt Q15477)
Method in brief: as §1

[4] = molecular target: T2, HNRNPA0 (UniProt Q13151)
T2 sequence: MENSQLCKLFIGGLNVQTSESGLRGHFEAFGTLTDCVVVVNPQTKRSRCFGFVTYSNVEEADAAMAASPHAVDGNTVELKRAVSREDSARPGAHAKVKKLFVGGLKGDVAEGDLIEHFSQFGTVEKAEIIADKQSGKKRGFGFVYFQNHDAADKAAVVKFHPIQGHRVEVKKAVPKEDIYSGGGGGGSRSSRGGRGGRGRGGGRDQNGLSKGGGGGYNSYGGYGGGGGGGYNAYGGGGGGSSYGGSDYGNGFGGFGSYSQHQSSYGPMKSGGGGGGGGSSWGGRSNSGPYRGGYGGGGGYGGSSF
Method in brief: as §1

[5] = molecular target: SRSF6 (UniProt Q13247)
Method in brief: as §1

[6] = molecular target: RPS3A (UniProt P61247)
Method in brief: as §1

[7] = molecular target: MRPL43 (UniProt Q8N983)
Method in brief: as §1

[8] = molecular target: AGO1 (UniProt Q9UL18)
Method in brief: as §1

[9] = molecular target: P4HA2 (UniProt O15460)
Method in brief: as §1

[10] = molecular target: PTBP3 (UniProt O95758)
Method in brief: as §1

[11] = molecular target: T3, PINX1 (UniProt Q96BK5)
T3 sequence: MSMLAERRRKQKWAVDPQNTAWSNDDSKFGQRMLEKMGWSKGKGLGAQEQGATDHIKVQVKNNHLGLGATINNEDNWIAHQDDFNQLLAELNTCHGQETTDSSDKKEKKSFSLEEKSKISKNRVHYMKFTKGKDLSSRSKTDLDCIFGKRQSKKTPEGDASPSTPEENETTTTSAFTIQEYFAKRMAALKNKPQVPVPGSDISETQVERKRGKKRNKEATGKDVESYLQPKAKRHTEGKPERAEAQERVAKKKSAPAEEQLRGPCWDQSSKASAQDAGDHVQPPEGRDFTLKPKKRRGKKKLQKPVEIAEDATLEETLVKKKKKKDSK
Method in brief: as §1

Chain of SRSF6 (Q13247 whole entry, looked up): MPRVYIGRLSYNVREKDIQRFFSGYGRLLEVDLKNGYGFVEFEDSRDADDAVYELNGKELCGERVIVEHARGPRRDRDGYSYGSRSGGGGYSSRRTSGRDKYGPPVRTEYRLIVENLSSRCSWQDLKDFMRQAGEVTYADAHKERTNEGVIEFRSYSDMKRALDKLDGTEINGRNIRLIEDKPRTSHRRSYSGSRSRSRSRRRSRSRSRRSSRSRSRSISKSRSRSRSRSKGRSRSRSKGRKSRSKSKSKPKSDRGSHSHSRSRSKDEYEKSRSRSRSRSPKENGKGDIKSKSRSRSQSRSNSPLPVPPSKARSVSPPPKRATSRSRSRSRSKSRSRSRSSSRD
Chain of PTBP3 (O95758 whole entry): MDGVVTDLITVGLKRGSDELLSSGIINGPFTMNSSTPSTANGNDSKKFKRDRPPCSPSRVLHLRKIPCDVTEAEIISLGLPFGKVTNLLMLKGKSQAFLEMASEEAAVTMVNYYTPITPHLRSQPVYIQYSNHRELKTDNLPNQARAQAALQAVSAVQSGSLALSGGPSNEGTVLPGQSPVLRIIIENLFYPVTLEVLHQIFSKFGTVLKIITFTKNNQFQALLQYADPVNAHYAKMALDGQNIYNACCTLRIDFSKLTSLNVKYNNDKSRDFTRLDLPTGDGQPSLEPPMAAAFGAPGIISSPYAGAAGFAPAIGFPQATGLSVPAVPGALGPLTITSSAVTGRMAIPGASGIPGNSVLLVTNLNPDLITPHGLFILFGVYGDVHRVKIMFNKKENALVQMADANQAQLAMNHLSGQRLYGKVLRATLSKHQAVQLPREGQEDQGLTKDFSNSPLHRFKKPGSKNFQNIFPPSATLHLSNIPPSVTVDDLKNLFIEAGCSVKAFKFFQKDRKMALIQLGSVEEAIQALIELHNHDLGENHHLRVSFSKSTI
Chain of SKIV2L (Q15477 whole entry): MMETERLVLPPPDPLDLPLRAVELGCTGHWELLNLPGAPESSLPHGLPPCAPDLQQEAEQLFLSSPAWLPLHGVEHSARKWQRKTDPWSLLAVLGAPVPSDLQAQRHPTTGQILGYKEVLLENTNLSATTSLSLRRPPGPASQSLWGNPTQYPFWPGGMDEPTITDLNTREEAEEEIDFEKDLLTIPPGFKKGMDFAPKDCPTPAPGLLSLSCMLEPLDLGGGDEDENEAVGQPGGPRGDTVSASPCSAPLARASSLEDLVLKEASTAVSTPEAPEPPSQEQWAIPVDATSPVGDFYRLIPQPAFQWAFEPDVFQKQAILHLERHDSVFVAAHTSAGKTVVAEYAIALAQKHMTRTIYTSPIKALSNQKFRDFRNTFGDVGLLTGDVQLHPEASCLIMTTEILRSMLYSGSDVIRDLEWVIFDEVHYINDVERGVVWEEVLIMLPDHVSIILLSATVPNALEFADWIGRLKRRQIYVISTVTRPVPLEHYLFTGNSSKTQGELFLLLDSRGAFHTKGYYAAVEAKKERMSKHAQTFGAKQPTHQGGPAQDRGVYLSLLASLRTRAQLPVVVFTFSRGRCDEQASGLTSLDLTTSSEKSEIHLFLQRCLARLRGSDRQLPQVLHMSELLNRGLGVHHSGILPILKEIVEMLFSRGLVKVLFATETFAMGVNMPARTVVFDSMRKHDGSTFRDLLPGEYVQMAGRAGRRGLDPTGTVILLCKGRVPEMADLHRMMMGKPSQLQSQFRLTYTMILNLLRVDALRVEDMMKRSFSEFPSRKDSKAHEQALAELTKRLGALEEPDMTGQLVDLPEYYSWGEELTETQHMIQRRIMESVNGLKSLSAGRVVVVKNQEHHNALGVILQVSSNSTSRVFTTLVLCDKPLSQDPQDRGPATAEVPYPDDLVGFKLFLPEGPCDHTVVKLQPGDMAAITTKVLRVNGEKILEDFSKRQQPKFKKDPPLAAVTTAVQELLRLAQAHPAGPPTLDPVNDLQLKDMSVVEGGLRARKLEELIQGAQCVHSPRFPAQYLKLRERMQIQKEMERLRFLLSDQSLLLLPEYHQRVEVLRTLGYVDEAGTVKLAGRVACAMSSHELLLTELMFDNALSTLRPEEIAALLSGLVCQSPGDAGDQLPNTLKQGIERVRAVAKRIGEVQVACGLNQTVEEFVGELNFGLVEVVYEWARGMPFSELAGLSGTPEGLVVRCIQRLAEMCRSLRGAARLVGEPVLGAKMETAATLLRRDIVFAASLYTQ
Chain of P4HA2 (O15460 whole entry): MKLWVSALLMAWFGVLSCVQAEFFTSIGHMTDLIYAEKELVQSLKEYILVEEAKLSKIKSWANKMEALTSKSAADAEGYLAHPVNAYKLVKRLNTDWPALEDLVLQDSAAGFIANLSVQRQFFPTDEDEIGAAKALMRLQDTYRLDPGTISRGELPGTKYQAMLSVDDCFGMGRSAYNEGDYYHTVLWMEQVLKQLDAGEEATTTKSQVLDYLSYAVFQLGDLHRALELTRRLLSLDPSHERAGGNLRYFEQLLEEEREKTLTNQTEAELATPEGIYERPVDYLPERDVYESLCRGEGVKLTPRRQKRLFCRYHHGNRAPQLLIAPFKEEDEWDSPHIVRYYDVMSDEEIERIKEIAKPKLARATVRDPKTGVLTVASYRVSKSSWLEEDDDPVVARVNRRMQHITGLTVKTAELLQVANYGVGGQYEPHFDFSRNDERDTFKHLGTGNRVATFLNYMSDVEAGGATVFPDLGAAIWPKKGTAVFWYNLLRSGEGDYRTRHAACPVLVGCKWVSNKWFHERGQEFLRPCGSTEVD

UAUUUAU
Kd [1]: 3370 nM
Kd [2]: 37.4 nM
Kd [3]: 902 nM
Kd [4]: 3200 nM

CUGUCCU
Kd [5]: 287 nM
Kd [6]: 64.2 nM
Kd [7]: 40.4 nM

AAUAAA
Kd [8]: 78.7 nM
Kd [9]: 37.5 nM
Kd [10]: 1290 nM
Kd [11]: 360 nM
